Results on four molecules are retold here after article PMC7041689.

One test has as its target YPet-XCTK2 (Xenopus) (UniProt P79955). The experiment in a line: FRET or BRET. (BRET reads energy transfer from a luciferase to a nearby fluorophore.)
For test [1], the target named is 6His-YPet-XCTK2-Tail (Xenopus) (UniProt P79955). Kind of test: co-sedimentation.
Another test addresses CyPet-XCTK2 (Xenopus) (UniProt P79955). Kind of test: FRET or BRET.
The next test addresses microtubules. Kind of test: co-sedimentation.

With importin α-CyPet (natural protein), in the test with YPet-XCTK2 (Xenopus), the mean line scan CyPet lifetime (importin α-CyPet + Ran without YPet 1.68) amounted to 1.55 ns.
In test [1], importin α-6His (natural protein) came in with a percent decrease of the amount of YPet-XCTK2-Tail bound to MTs (1× importin α/β) of 46% and a percent decrease of the amount of YPet-XCTK2-Tail bound to MTs (4× importin α/β) of 53%.
In the test with CyPet-XCTK2 (Xenopus), 6His-importin α-YPet (natural protein) yielded a fold decrease of Kd with importin β against without importin β of 5 fold.

B1: 6His-YPet-XCTK2-Tail (domain or fragment)
chain: DSTDKKVQVASRLPVPPKRKYVSNDENQEQMQRKRLRSSLESELPAVRVAASIATSKPRAAPVAALPKPQVIGRQSLAVMRPKNSGPGITSTSFSGKTKVSSSVTQPAAIGAEKKKRAA
In the test with microtubules, B1 had a fold increase of Kd with 4× importin α/β against no importin α/β of 10 fold.
